Measured values reported in patent publication US20030026781A1, “Compositions and methods for regulating endogenous inhibitor of ATP synthase, including treatment for diabetes” (MitoKor, priority 1999, published 2003).

Target: mitochondrial ATP synthase (ETC Complex V) ATPase in rat liver submitochondrial particles (SMP) (rat) (UniProt P15999)
Experiment: cell-based or functional assay

- IC50 at pH 6.5, inhibition of oligomycin-sensitive ATPase in rat liver SMP: 0.19 µM
- IC50 at pH 7.25, inhibition of oligomycin-sensitive ATPase in rat liver SMP: 0.42 µM
- IC50 at pH 8, inhibition of oligomycin-sensitive ATPase in rat liver SMP: > 0.8 µM
Substance: rat IF1 (from UniProt Q03344 26-107)
